B1: human TA PD1-IL2v, MT204, 2xPQARK, in line (antibody, human IgG1, kappa, L234A L235A)
light: DIVMTQSPDSLAVSLGERATINCKASESVDTSDNSFIHWYQQKPGQSPKLLIYRSSTLESGVPDRFSGSGSGTDFTLTISSLQAEDVAVYYCQQNYDVPWTFGQGTKVEIKRTVAAPSVFIFPPSDEQLKSGTASVVCLLNNFYPREAKVQWKVDNALQSGNSQESVTEQDSKDSTYSLSSTLTLSKADYEKHKVYACEVTHQGLSSPVTKSFNRGEC
heavy 1: EVQLLESGGGLVQPGGSLRLSCAASGFSFSSYTMSWVRQAPGKGLEWVATISGGGRDIYYPDSVKGRFTISRDNSKNTLYLQMNSLRAEDTAVYYCVLLTGRVYFALDSWGQGTLVTVSSASTKGPSVFPLAPSSKSTSGGTAALGCLVKDYFPEPVTVSWNSGALTSGVHTFPAVLQSSGLYSLSSVVTVPSSSLGTQTYICNVNHKPSNTKVDKKVEPKSCDKTHTCPPCPAPEAAGGPSVFLFPPKPKDTLMISRTPEVTCVVVDVSHEDPEVKFNWYVDGVEVHNAKTKPREEQYNSTYRVVSVLTVLHQDWLNGKEYKCKVSNKALGAPIEKTISKAKGQPREPQVCTLPPSRDELTKNQVSLSCAVKGFYPSDIAVEWESNGQPENNYKTTPPVLDSDGSFFLVSKLTVDKSRWQQGNVFSCSVMHEALHNHYTQKSLSLSPG
heavy 2: not shown
notes: Bivalent human PD1-targeted human IgG PG LALA with IL2v and MT204 scFv mask 'in-line' on the C-terminus of the Fc knob chain, two PQARK sites; also called P1AG9606; P1AG9606-008
B2: human TA PD1-IL2v, MT204, non cleavable, in line (antibody, human IgG1, kappa, L234A L235A)
light: B1 light
heavy 1: B1 heavy 1
heavy 2: not shown
notes: Bivalent human PD1-targeted human IgG PG LALA with masked IL2v in-line on the Fc knob chain and no matriptase sites (non-cleavable control); also called P1AG5740; P1AG5740-004
B3: human PD1-IL2v, unmasked, in line (antibody, human IgG1, kappa, L234A L235A)
light: B1 light
heavy 1: B1 heavy 1
heavy 2: not shown
notes: Bivalent human PD1-targeted human IgG PG LALA with IL2v fused to the C-terminus of the Fc knob chain (non-masked control); also called P1AA7146; P1AA7146-006
B4: TA PD1-IL2v, MT204, non cleavable, N-term (antibody, human IgG1, kappa, L234A L235A)
light chain of the anti-human PD1 Fab (C02011851-A): B1 light
heavy chain, Fc hole, PG LALA (C01483382-H): EVQLLESGGGLVQPGGSLRLSCAASGFSFSSYTMSWVRQAPGKGLEWVATISGGGRDIYYPDSVKGRFTISRDNSKNTLYLQMNSLRAEDTAVYYCVLLTGRVYFALDSWGQGTLVTVSSASTKGPSVFPLAPSSKSTSGGTAALGCLVKDYFPEPVTVSWNSGALTSGVHTFPAVLQSSGLYSLSSVVTVPSSSLGTQTYICNVNHKPSNTKVDKKVEPKSCDKTHTCPPCPAPEAAGGPSVFLFPPKPKDTLMISRTPEVTCVVVDVSHEDPEVKFNWYVDGVEVHNAKTKPREEQYNSTYRVVSVLTVLHQDWLNGKEYKCKVSNKALGAPIEKTISKAKGQPREPQVCTLPPSRDELTKNQVSLSCAVKGFYPSDIAVEWESNGQPENNYKTTPPVLDSDGSFFLVSKLTVDKSRWQQGNVFSCSVMHEALHNHYTQKSLSLSPGK
MT204 scFv mask - non-cleavable linker - IL2v - Fc knob chain, PG LALA (C2184220946-K): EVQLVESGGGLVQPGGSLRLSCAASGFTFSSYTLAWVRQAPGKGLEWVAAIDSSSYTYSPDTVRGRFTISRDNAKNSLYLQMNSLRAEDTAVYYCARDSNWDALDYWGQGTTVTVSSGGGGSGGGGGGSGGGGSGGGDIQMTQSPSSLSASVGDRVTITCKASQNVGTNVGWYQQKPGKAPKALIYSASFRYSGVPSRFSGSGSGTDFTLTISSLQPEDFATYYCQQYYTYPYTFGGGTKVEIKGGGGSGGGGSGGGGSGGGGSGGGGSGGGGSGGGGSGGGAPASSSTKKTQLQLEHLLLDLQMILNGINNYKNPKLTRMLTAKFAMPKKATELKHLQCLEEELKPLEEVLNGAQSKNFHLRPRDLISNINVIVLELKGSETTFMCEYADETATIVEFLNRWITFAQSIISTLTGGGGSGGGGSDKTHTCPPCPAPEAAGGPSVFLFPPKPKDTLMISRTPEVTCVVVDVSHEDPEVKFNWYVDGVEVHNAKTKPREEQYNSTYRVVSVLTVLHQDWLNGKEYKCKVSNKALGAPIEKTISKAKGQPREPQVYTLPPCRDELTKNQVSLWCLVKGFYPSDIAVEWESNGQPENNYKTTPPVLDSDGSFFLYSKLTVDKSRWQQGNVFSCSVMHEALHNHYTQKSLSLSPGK
notes: also called human TA PD1-IL2v, MT204, non cleavable, N-term; P1AG0929
B5: human TA PD1-IL2v, MT204, 2xPQARK, knob/hole (antibody, human IgG1, kappa, L234A L235A)
light: B1 light
heavy 1: EVQLLESGGGLVQPGGSLRLSCAASGFSFSSYTMSWVRQAPGKGLEWVATISGGGRDIYYPDSVKGRFTISRDNSKNTLYLQMNSLRAEDTAVYYCVLLTGRVYFALDSWGQGTLVTVSSASTKGPSVFPLAPSSKSTSGGTAALGCLVKDYFPEPVTVSWNSGALTSGVHTFPAVLQSSGLYSLSSVVTVPSSSLGTQTYICNVNHKPSNTKVDKKVEPKSCDKTHTCPPCPAPEAAGGPSVFLFPPKPKDTLMISRTPEVTCVVVDVSHEDPEVKFNWYVDGVEVHNAKTKPREEQYNSTYRVVSVLTVLHQDWLNGKEYKCKVSNKALGAPIEKTISKAKGQPREPQVCTLPPSRDELTKNQVSLSCAVKGFYPSDIAVEWESNGQPENNYKTTPPVLDSDGSFFLVSKLTVDKSRWQQGNVFSCSVMHEALHNHYTQKSLSLSPGGGGGSGGGGSPQARKGGGGSGGGGSGGGGSGGGGSGGGEVQLVESGGGLVQPGGSLRLSCAASGFTFSSYTLAWVRQAPGKGLEWVAAIDSSSYTYSPDTVRGRFTISRDNAKNSLYLQMNSLRAEDTAVYYCARDSNWDALDYWGQGTTVTVSSGGGGSGGPQARKGGGGSGGGDIQMTQSPSSLSASVGDRVTITCKASQNVGTNVGWYQQKPGKAPKALIYSASFRYSGVPSRFSGSGSGTDFTLTISSLQPEDFATYYCQQYYTYPYTFGGGTKVEIK
heavy 2: not shown
notes: Bivalent human PD1-targeted human IgG PG LALA; also called P1AG9607; P1AG9607-006

Target: T1, PD1 on activated human CD4 and CD8 T cells (human, UniProt Q15116 25-288)
T1 construct: whole, on cells; Endogenous PD1 on CD3/CD28-stimulated T cells; also called human PD1; PD1 receptor
T1 sequence (Q15116 25-288): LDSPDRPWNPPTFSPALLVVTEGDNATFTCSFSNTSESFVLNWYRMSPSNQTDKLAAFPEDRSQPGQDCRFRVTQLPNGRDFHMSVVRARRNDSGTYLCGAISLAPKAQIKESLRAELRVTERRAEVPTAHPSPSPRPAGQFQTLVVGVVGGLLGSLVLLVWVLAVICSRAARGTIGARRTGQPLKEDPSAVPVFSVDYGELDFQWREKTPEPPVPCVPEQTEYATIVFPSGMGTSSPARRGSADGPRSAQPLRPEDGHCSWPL
Experiment: flow cytometry, CD3/CD28-activated human PBMCs gated on CD3+CD4+ T cells, FITC anti-human Fc secondary antibody; no Matriptase digestion described
Procedure: (§1) PBMCs were bought from Biomex from a healthy donor (Lot 5000899PB). The PBMCs were stimulated for 3 days with CD3 and CD28 to induce upregulation of PD1 on T cells. Therefore, PBMCs were seeded in medium (RPMI1640, 10% FCS, 2 mM Glutamine) into cell culture flasks that were coated for 1 h at 37° C. with 1 μg/ml CD3 (clone OKT3, 302914, BioLegend). CD28 was added in solution to the PBMCs at a concentration of 1 μg/ml (clone CD28.2, 302914, BioLegend). After three days, PBMCs were harvested and transferred into a 96 well round bottom plate (200′000 cells per well). The cells were washed with FACS buffer (PBS, 2% FBS, 5 mM EDTA, 0.025% NaN3) and stained with 30 μl of corresponding TA PD1-IL2v constructs in FACS buffer for 30 min at 4° C. The cells were washed twice with FACS buffer to remove unbound molecules. Then 30 μl of the diluted FITC anti-mouse Fc specific secondary antibody (1:50 dilution, 115-096-071, Jackson ImmunoResearch) or for the human constructs the diluted FITC anti-human Fc specific secondary antibody (1:50 dilution, 115-096-098, Jackson ImmunoResearch) was added to the cells. After 30 min incubation at 4° C. the cells were washed twice with FACS buffer. To detect T cells, PBMCs were stained with 30 μl of a mixture of CD3 PE/Cyanine7 (clone UCHT1, 300420, BioLegend), CD4 PE (clone RPA-T4, 300508, BioLegend) and CD8 APC (clone SK1, 344722, BioLegend) for 30 min at 4° C. The unbound antibodies were removed by washing twice with FACS buffer. Finally the cells were resuspended in 150 μl FACs buffer and measured using a BD Fortessa gating on CD3+CD4+ cells (CD4 T cells) and CD3+CD8+ cells (CD8 T cells).

Binder | EC50 (read off the curve) [nM]
B1 | ~2
B2 | ~2
B3 | ~2

Target: T1, PD1 on activated human CD4 and CD8 T …
Experiment: flow cytometry, CD3/CD28-activated human PBMCs gated on CD3+CD4+ T cells, PE anti-human Fc secondary antibody; TA constructs pre-incubated with Matriptase, unmasked controls not
Procedure: (§2) Three formats of TA PD1-IL2v molecules and respective controls were assessed for their capacity to bind to activated PD1 positive CD8 T cells and CD4 T cells within PBMCs in comparison to the respective unmasked molecules.
(§3) PBMCs were purchased from Biomex from a healthy donor (Lot 5000729PB). The PBMCs were stimulated for three days with CD3 and CD28 to induce upregulation of PD1 on T cells. Therefore, PBMCs were seeded in medium (RPMI1640, 10% FCS, 2 mM Glutamine) into cell culture flasks that were coated for 1 hour at 37° C. with 1 μg/ml CD3 (clone OKT3, 302914, BioLegend). CD28 was added in solution to the PBMCs at a concentration of 1 μg/ml (clone CD28.2, 302914, BioLegend). After three days, PBMCs were harvested and transferred into a 96 well round bottom plate (200′000 cells per well). The cells were washed with FACS buffer (PBS, 2% FBS, 5 mM EDTA, 0.025% NaN3) and stained with 30 μl of corresponding TA PD1-IL2v constructs in FACS buffer for 30 min at 4° C. Prior to the staining, 20 μg of the TA PD1-IL2v constructs were digested with 4 μl Matriptase (Enzo ˜2.5 U/μl, ALX-201-246-U25, Lot 12152015, or without Matriptase for the unmasked controls) for 2 hours at 37° C. in 40 μl Matriptase buffer (50 mM Tris, 50 mM NaCl, 0.01% Tween 20, pH 9.0). After the staining, the cells were washed twice with FACS buffer to remove unbound molecules. Then 30 μl of the diluted PE anti-human Fc specific secondary antibody (1:50 dilution, 109-116-170, Jackson ImmunoResearch) was added to the cells. After 30 min incubation at 4° C. the cells were washed twice with FACS buffer. To detect T cells, PBMCs were stained with 30 μl of a mixture of CD3 PE/Cyanine7 (clone UCHT1, 300420, BioLegend), CD4 FITC (clone RPA-T4, 300528, BioLegend) and CD8 APC/Cyanine7 (clone HIT8a, 300926, BioLegend) for 30 min at 4° C. The unbound antibodies were removed by washing twice with FACS buffer. Finally the cells resuspended in 150 μl FACS buffer and measured using a BD Fortessa gating on CD3+CD4+ cells (CD4 T cells) and CD3+CD8+ cells (CD8 T cells).

Binder | EC50 (read off the curve) [nM]
B1 | ~0.8
B2 | ~0.8
B3 | ~0.7
B4 | ~1
B5 | ~0.8

Target: T1, PD1 on activated human CD4 and CD8 T …
Experiment: flow cytometry, CD3/CD28-activated human PBMCs gated on CD3+CD8+ T cells, FITC anti-human Fc secondary antibody; no Matriptase digestion described
Procedure: as §1

Binder | EC50 (read off the curve) [nM]
B1 | ~2
B2 | ~2
B3 | ~2

Target: T1, PD1 on activated human CD4 and CD8 T …
Experiment: flow cytometry, CD3/CD28-activated human PBMCs gated on CD3+CD8+ T cells, PE anti-human Fc secondary antibody; TA constructs pre-incubated with Matriptase, unmasked controls not
Procedure: as §2, §3

Binder | EC50 (read off the curve) [nM]
B1 | ~1
B2 | ~1
B3 | ~0.8
B4 | ~2
B5 | ~1
